Results as given in article PMC4539566.

Biological target: fibronectin (Fn) isolated from human plasma, as manually pulled single Fn fibres (human) (UniProt P02751)
Assay: fluorescence microscopy of a labelled peptide on single Fn fibres (fibre stretch assay); Fn fibres (10% Fn-Alexa647) held across PDMS trenches in a uniaxial strain device, relaxed or stretched (40%, 140%, 380% absolute strain); blocked with 4% BSA 30 min; incubated with CLP-Alexa488 30 min, rinsed and imaged in PBS; CLP-Alexa488/Fn-Alexa647 intensity ratio normalised to the 140% strain point

UniProt P02751, sequence (P02751 32-2477): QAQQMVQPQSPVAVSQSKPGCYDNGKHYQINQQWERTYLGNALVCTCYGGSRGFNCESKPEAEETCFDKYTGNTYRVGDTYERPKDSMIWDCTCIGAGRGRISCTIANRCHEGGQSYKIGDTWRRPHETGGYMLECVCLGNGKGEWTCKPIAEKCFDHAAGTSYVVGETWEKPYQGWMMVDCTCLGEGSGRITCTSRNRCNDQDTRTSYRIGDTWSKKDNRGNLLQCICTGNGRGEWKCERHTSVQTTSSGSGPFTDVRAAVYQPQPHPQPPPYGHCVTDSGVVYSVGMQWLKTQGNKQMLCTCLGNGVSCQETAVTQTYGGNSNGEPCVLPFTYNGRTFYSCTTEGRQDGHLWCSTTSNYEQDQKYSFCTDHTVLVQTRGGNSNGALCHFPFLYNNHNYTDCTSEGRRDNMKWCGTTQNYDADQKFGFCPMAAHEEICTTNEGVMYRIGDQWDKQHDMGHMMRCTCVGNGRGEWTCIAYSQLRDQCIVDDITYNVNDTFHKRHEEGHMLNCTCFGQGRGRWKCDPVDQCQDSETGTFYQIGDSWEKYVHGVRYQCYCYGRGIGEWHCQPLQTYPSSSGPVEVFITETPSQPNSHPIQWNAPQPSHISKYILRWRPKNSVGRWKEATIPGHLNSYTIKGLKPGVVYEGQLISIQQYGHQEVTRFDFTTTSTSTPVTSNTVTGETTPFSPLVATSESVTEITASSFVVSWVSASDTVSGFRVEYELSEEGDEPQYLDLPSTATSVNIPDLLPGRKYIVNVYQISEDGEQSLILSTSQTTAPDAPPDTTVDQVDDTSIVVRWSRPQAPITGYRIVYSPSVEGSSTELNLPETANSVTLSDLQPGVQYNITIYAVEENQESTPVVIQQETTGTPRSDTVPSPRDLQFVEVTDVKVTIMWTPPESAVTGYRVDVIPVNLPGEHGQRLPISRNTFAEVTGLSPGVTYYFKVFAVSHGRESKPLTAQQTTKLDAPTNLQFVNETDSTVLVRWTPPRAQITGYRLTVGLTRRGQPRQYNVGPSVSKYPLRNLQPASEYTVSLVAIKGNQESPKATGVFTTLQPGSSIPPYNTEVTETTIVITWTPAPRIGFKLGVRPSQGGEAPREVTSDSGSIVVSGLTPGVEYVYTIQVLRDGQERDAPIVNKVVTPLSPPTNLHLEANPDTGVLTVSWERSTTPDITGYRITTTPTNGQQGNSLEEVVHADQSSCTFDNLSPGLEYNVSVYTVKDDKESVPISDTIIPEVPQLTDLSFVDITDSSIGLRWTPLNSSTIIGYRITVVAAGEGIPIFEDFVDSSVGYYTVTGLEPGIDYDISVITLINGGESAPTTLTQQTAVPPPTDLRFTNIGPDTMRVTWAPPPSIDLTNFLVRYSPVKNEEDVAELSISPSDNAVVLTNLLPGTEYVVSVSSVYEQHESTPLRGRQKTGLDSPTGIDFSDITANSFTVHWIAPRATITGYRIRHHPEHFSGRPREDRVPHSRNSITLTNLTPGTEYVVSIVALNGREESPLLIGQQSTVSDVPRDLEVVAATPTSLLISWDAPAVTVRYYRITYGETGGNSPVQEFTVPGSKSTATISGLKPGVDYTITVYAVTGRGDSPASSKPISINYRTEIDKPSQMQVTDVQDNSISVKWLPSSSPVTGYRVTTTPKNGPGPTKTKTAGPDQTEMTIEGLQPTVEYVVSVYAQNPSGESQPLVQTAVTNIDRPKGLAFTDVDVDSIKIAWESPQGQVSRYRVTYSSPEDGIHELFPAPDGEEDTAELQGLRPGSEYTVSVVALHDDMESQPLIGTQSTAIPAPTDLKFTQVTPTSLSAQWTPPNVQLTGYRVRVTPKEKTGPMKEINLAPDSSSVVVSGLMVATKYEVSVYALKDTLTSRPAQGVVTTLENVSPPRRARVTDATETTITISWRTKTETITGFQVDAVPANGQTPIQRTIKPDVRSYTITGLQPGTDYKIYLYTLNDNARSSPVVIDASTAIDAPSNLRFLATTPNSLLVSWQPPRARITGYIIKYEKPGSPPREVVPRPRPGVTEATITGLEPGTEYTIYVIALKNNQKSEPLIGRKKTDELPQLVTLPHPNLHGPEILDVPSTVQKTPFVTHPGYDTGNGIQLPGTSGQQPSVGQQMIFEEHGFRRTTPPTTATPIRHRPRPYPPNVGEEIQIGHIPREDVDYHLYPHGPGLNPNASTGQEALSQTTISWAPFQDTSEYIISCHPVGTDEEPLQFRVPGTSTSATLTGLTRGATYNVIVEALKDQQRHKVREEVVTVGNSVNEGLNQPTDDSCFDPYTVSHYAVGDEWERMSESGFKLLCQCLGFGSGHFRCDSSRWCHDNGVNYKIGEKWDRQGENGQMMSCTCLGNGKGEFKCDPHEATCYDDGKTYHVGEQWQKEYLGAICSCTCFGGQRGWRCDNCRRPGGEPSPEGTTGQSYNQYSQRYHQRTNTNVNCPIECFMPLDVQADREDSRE

- drop of the CLP/Fn intensity ratio from low to high Fn fibre strain: 52%
Substance: synthetic collagen peptide (CLP) derived from the Fn-binding region of the α1 chain of type I collagen (residues Q778-G799), with a terminal cysteine
